The target in the assay is Recombinant Cx43CT (carboxyl terminal domain of rat connexin43, residues 255-382, preceded by GPLG) (rat) (UniProt P08050). The experiment in a line: SPR, peptide 1.0 mM. (In general: Surface plasmon resonance follows binding to a sensor surface in real time, without labels.)
Recombinant Cx43CT (carboxyl terminal domain of rat connexin43, residues 255-382, preceded by GPLG) (rat), sequence (P08050 other isoform, or with tags, fused parts or gaps limits assumed): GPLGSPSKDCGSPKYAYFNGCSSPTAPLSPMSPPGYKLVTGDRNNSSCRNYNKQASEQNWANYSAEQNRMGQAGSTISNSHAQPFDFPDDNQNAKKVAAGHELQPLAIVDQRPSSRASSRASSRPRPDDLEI

As for Peptide 2502, AcRNP-NH2, the Response Dose (arbitrary units) was 4.6.

The record behind these values is US20090075291A1, “PEPTIDE-BASED REGULATION OF GAP JUNCTIONS” (The Research Foundation of State University of New York, priority 2006, published 2009).
